In publication PMC10495429, “Discovery of L-threonine transaldolases for enhanced biosynthesis of beta-hydroxylated amino acids” (Communications Biology, 2023):

Assays:
PbTTA = system: T1, PbTTA; assay: TTA-ADH coupled assay (NADH depletion at […] nm), non-linear regression; assay type: biochemical; conditions: 1 mM phenylacetaldehyde (non-saturating), PLP, MgCl2, phosphate pH 7.5, 30 °C; read-out: apparent KM
T1 construct: N-terminal hexahistidine-SUMO tag with TEV site kept (screen done with SUMO fusion intact), E. coli BL21

C[C@@H](O)[C@H](N)C(=O)O = assay: purified protein; conditions: 1 mM phenylacetaldehyde (non-saturating), PLP, MgCl2, phosphate pH 7.5, 30 °C
purified protein = substrate: C[C@@H](O)[C@H](N)C(=O)O; assay: purified protein; assay type: biochemical, Pseudomonas fluorescens; conditions: 1 mM phenylacetaldehyde (non-saturating), PLP, MgCl2, phosphate pH 7.5, 30 °C

With `C[C@@H](O)[C@H](N)C(=O)O` [L-Thr] the Km (PbTTA) was 10.9 mM.

PiTTA (Pseudomonas sp. Irchel s3a18) was tested, and the Km (C[C@@H](O)[C@H](N)C(=O)O) was 35.8 (21.0, 41.5) mM and the kcat (C[C@@H](O)[C@H](N)C(=O)O) was 276.4 (260, 294.7) min-1.

s-KaTTA (Kitasatospora aureofaciens) gave a Km (C[C@@H](O)[C@H](N)C(=O)O) of 19.1 mM.

B1: ObiH (Pseudomonas fluorescens) (protein)
chain: MSNVKQQTAQIVDWLSSTLGKDHQYREDSLSLTANENYPSALVRLTSGSTAGAFYHCSFPFEVPAGEWHFPEPGHMNAIADQVRDLGKTLIGAQAFDWRPNGGSTAEQALMLAACKPGEGFVHFAHRDGGHFALESLAQKMGIEIFHLPVNPTSLLIDVAKLDEMVRRNPHIRIVILDQSFKLRWQPLAEIRSVLPDSCTLTYDMSHDGGLIMGGVFDSPLSCGADIVHGNTHKTIPGPQKGYIGFKSAQHPLLVDTSLWVCPHLQSNCHAEQLPPMWVAFKEMELFGRDYAAQIVSNAKTLARHLHELGLDVTGESFGFTQTHQVHFAVGDLQKALDLCVNSLHAGGIRSTNIEIPGKPGVHGIRLGVQAMTRRGMKEKDFEVVARFIADLYFKKTEPAKVAQQIKEFLQAFPLAPLAYSFDNYLDEELLAAVYQGAQR
notes: N-terminal hexahistidine tag, expressed in E. coli BL21, codon-optimised gene; tag kept
Work on B1 yielded a Km (purified protein) of 29.5 mM.
